Data reported in publication PMC12120882.

Molecular target: SlbHLH95 (GST fusion) (Solanum lycopersicum, UniProt A0A3Q7IJR5 1-380)
Test: EMSA

Binder | binding result
SlCHS1 promoter E-box probe 2 (dsDNA) DNA 1: CTAAAAAAGTTGCTCAAACACGTGAAGACTAGCTACCGCCTA DNA 2: TAGGCGGTAGCTAGTCTTCACGTGTTTGAGCAACTTTTTTAG | no binding
SlFLS promoter E-box probe 3 (dsDNA) DNA 1: TAAAAAGCTGTTTATCAGCACTTGTTTGCCAAACACATCAAC DNA 2: GTTGATGTGTTTGGCAAACAAGTGCTGATAAACAGCTTTTTA | no binding
SlCHS1 promoter E-box probe 1 (dsDNA) DNA 1: AAGCCATTTTCTCTTCTTCACTTGCTAAAATTTGTATAATAT DNA 2: ATATTATACAAATTTTAGCAAGTGAAGAAGAGAAAATGGCTT | no binding
SlFLS promoter E-box probe 2 (dsDNA) DNA 1: ATTATACATACAAAATATCAATTGCAAGCTCTGATTTTATGT DNA 2: ACATAAAATCAGAGCTTGCAATTGATATTTTGTATGTATAAT | binds
SlCHS1 promoter E-box probe 3 (dsDNA) DNA 1: TTTATACAGTTCTCTGCCCAAGTGTCTTTCTCTTTCTTGTTT DNA 2: AAACAAGAAAGAGAAAGACACTTGGGCAGAGAACTGTATAAA | no binding
